Assay results as given in the RNAGym collection of RNA variant scans (doi:10.1093/molbev/msab373).

B1: Azoarcus group I ribozyme (parent)
chain: GUGCCUUGCGCCGGGAAACCACGCAAGGGAUGGUGUCAAAUUCGGCGAAACCUAAGCGCCCGCCCGGGCGUAUGGCAACGCCGAGCCAAGCUUCGGCGCCUGCGCCGAUGAAGGUGUAGAGACUAGACGGCACCCACCUAAGGCAAACGCUAUGGUGAAGGCAUAGUCCAGGGAGUGGCGAAAGUCACACAAACCGG

Variants of: B1
Assay: reverse-splicing fitness (ratio to wild type); higher = more active; in vitro selection; Mg2+ level not given
In short: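 An in vitro group I ribozyme library with randomized positions was T7-transcribed and gel-purified. In triplicate, 10 pmol RNA in EPPS pH 7.5 was reacted with 50 pmoles of a 30-nt RNA substrate for 1 h at 37 °C across several added MgCl2 levels (1–48 mM), then stopped with EDTA. Products were reverse transcribed from a substrate-complementary primer, PCR-amplified and sequenced (HiSeq 4000). Fitness is a variant's read proportion after selection over that before, normalised to wild type.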

Variant | reverse-splicing fitness
C82A C150A U176G | 0.021
C82A C150A U176A | 0.0524
C82A C150A U176C | 0.0632
C82A C150U C169G U176G | 0.00542
C82A C150U C169G U176A | 0.014
C82A C150U C169G U176C | 0.0175
C82A C169G U176G | 0.00442
C82A C169G U176A | 0.0139
C82A C169G U176C | 0.0234
C82A A145U C150A C169U U176G | 0.00584
C82A A145U C150A C169U U176A | 0.0139
C82A A145U C150A C169U U176C | 0.013
C82A A145G C169G | 0.0111
C82A A145G C169A | 0.0112
C82A A145G C169U | 0.0161
C82A A145U C169A U176C | 0.00899
C82A A145U C169A U176G | 0.00484
C82A A145U C169A U176A | 0.00948
C82G A111C A120C A145C C150G | 0.0093
C82G A111C A120C A145C C150A | 0.00907
C82G A111C A120C A145C C150U | 0.0168

Variant | reverse-splicing fitness
C82G A111C A120C A145C C150U C169A | 0.00728
C82G A111C A120C A145C C150U C169G | 0.00697
C82G A111C A120C A145C C150U C169U | 0.011
C82G A111C A120C A145U C150A C169G | 0.0083
C82G A111C A120C A145U C150A C169A | 0.00835
C82G A111C A120C A145U C150A C169U | 0.011
C82G A111C A120C A145C C150A C169U U176G | 0.00799
C82G A111C A120C A145C C150A C169U U176C | 0.0123
C82G A111C A120C A145C C150A C169U U176A | 0.0176
C82A C169U U176C | 0.0153
C82A C169U U176G | 0.00459
C82A C169U U176A | 0.0166
C82G A111C A120C A145C C150G C169U U176G | 0.00572
C82G A111C A120C A145C C150G C169U U176C | 0.0123
C82G A111C A120C A145C C150G C169U U176A | 0.00824
C82A C169U | 0.0153
C82A C169A | 0.00967
C82A C169G | 0.00961
C82G A111C A120C A145G C169G U176C | 0.0253
C82G A111C A120C A145G C169G U176A | 0.0188
C82G A111C A120C A145G C169G U176G | 0.00618
